The values that follow come from patent publication US20170037111A1, “Novel peptides and combination of peptides for use in immunotherapy against ovarian cancer and other cancers” (immatics biotechnologies GmbH, priority 2015, published 2017).

The subject of one assay is CD8+ T cells. As to the kind of experiment: In vitro T-cell priming (immunogenicity) with aAPCs loaded with peptide/MHC and anti-CD28, pMHC multimer readout. The class given is cell-based, human. Particulars: for donors / wells: in vitro immunogenicity of HLA class I peptides; for donors: percentage of positive donors; for wells: percentage of positive wells. The text has this: In order to obtain information regarding the immunogenicity of the TUMAPs of the present invention, the inventors performed investigations using an in vitro T-cell priming assay based on repeated stimulations of CD8+ T cells with artificial antigen presenting cells (aAPCs) loaded with peptide/MHC complexes and anti-CD28 antibody.
In order to perform in vitro stimulations by artificial antigen presenting cells loaded with peptide-MHC complex (pMHC) and anti-CD28 antibody, the inventors first isolated CD8+ T cells from fresh HLA-A*02 leukapheresis products via positive selection using CD8 microbeads (Miltenyi Biotec, Bergisch-Gladbach, Germany) of healthy donors obtained from the University clinics Mannheim, Germany, after informed consent.
PBMCs and isolated CD8+ lymphocytes were incubated in T-cell medium (TCM) until use consisting of RPMI-Glutamax (Invitrogen, Karlsruhe, Germany) supplemented with 10% heat inactivated human AB serum (PAN-Biotech, Aidenbach, Germany), 100 U/ml Penicillin/100 μg/ml Streptomycin (Cambrex, Cologne, Germany), 1 mM sodium pyruvate (CC Pro, Oberdorla, Germany), 20 μg/ml Gentamycin (Cambrex). 2.5 ng/ml IL-7 (PromoCell, Heidelberg, Germany) and 10 U/ml IL-2 (Novartis Pharma, Nürnberg, Germany) were also added to the TCM at this step.
Generation of pMHC/anti-CD28 coated beads, T-cell stimulations and readout was performed in a highly defined in vitro system using four different pMHC molecules per stimulation condition and 8 different pMHC molecules per readout condition.
The purified co-stimulatory mouse IgG2a anti human CD28 Ab 9.3 (Jung et al., 1987) was chemically biotinylated using Sulfo-N-hydroxysuccinimidobiotin as recommended by the manufacturer (Perbio, Bonn, Germany). Beads used were 5.6 μm diameter streptavidin coated polystyrene particles (Bangs Laboratories, Illinois, USA).
pMHC used for positive and negative control stimulations were A*0201/MLA-001 (peptide […] (SEQ ID NO. 664) from modified Melan-A/MART-1) and A*0201/DDX5-001 ([…] from DDX5, SEQ ID NO. 665), respectively.
800.000 beads/200 μl were coated in 96-well plates in the presence of 4×12.5 ng different biotin-pMHC, washed and 600 ng biotin anti-CD28 were added subsequently in a volume of 200 μl. Stimulations were initiated in 96-well plates by co-incubating 1×10^6 CD8+ T cells with 2×10^5 washed coated beads in 200 μl TCM supplemented with 5 ng/ml IL-12 (PromoCell) for 3 days at 37° C. Half of the medium was then exchanged by fresh TCM supplemented with 80 U/ml IL-2 and incubating was continued for 4 days at 37° C. This stimulation cycle was performed for a total of three times. For the pMHC multimer readout using 8 different pMHC molecules per condition, a two-dimensional combinatorial coding approach was used as previously described (Andersen et al., 2012) with minor modifications encompassing coupling to 5 different fluorochromes. Finally, multimeric analyses were performed by staining the cells with Live/dead near IR dye (Invitrogen, Karlsruhe, Germany), CD8-FITC antibody clone SK1 (BD, Heidelberg, Germany) and fluorescent pMHC multimers. For analysis, a BD LSRII SORP cytometer equipped with appropriate lasers and filters was used. Peptide specific cells were calculated as percentage of total CD8+ cells. Evaluation of multimeric analysis was done using the FlowJo software (Tree Star, Oregon, USA). In vitro priming of specific multimer+CD8+ lymphocytes was detected by comparing to negative control stimulations.
Exemplary flow cytometry results after TUMAP-specific multimer staining for two peptides of the invention are shown in FIG. 3 together with corresponding negative controls.

A further assay concerns the target HLA-A*02:01 (Homo sapiens, UniProt P04439, D140Y/D185E/D98H/E176V/E277Q/G131W/G231S/I119V/I121R/I166T/I218V/L300P/L318F/N151K/N90K/P208A/P217A/Q86G/Q94H/R138H/R169H/T345S). Nature of the assay: MHC binding assay (UV-ligand exchange, β2m ELISA, peptide exchange yield). As to conditions: MHC class I binding score; binding to HLA-A*02:01 ranged by peptide exchange yield (UV-ligand exchange, β2m ELISA). The essentials: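 Peptide–HLA-A*02:01 complexes were formed by UV-mediated exchange of a UV-cleavable ligand for the test peptide. Exchange yield was measured by capturing complexes on streptavidin, detecting with HRP anti-β2m antibody (1 h, 37°C) and reading TMB absorbance at 450 nm.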
A general note: ELISA stands for enzyme-linked immunosorbent assay.

“2 (SLLEADPFL; listed as Homo sapiens) [compound 2]”: the “Wells positive [%]” value with CD8+ T cells (in vitro immunogenicity, HLA-A*02 restricted peptides, positive wells among evaluable) is “″+″ (<20% = +)”. In addition, in the assay with HLA-A*02:01, the Peptide exchange result is reported as “″+++″ (≧50% = +++)”.

On to “580 (LLMENAERV; listed as Homo sapiens) [compound 580]”, for which the Peptide exchange entry with HLA-A*02:01 is recorded as “″++″ (≧20% = ++)”.

For the substance “582 (TLCDVILMV; listed as Homo sapiens) [compound 582]”, the Peptide exchange result in the assay with HLA-A*02:01 is listed as “″+++″ (≧50% = +++)”.

On to “583 (ILANDGVLLAA; listed as Homo sapiens) [compound 583]”, for which the Peptide exchange result in the assay with HLA-A*02:01 is given as “″+++″ (≧50% = +++)”.

Turning to “584 (ALAEVAAMENV; listed as Homo sapiens) [compound 584]”, the Peptide exchange result with HLA-A*02:01 is listed as “″+++″ (≧50% = +++)”.

Regarding “585 (ALWDLAADKQTL; listed as Homo sapiens) [compound 585]”, in the assay with HLA-A*02:01, the Peptide exchange entry was “″++++″ (≧75% = ++++)”.

As for “586 (KLKPGDLVGV; listed as Homo sapiens) [compound 586]”, the Peptide exchange entry with HLA-A*02:01 is reported as “″+++″ (≧50% = +++)”.

Take “587 (VMNDRLYAI; listed as Homo sapiens) [compound 587]”: the Peptide exchange entry with HLA-A*02:01 is on record as “″+++″ (≧50% = +++)”.

As to “588 (SLLPLSHLV; listed as Homo sapiens) [compound 588]”, the Peptide exchange entry in the assay with HLA-A*02:01 is “″+++″ (≧50% = +++)”.

For “589 (KLYPQLPAEI; listed as Homo sapiens) [compound 589]”, the Peptide exchange result with HLA-A*02:01 was “″+++″ (≧50% = +++)”.

“590 (SLIEKLWQT; listed as Homo sapiens) [compound 590]”: the Peptide exchange result with HLA-A*02:01 is “″++″ (≧20% = ++)”.

Regarding “591 (SMAELDIKL; listed as Homo sapiens) [compound 591]”, the Peptide exchange entry with HLA-A*02:01 is reported as “″+++″ (≧50% = +++)”.

With “592 (RLLSAAENFL; listed as Homo sapiens) [compound 592]”, the Peptide exchange result with HLA-A*02:01 is on record as “″+++″ (≧50% = +++)”.

“593 (GLPRFGIEMV; listed as Homo sapiens) [compound 593]”: in the assay with HLA-A*02:01, the Peptide exchange result is on record as “″+++″ (≧50% = +++)”.

As to “594 (IMLKGDNITL; listed as Homo sapiens) [compound 594]”, in the assay with HLA-A*02:01, the Peptide exchange result is recorded as “″+++″ (≧50% = +++)”.

On to “595 (VLLSIYPRV; listed as Homo sapiens) [compound 595]”, for which, in the assay with HLA-A*02:01, the Peptide exchange entry is given as “″+++″ (≧50% = +++)”.

For the substance “596 (ALLDQTKTLAESAL; listed as Homo sapiens) [compound 596]”, the Peptide exchange entry with HLA-A*02:01 is on record as “″+++″ (≧50% = +++)”.

For “597 (KLLEGQVIQL; listed as Homo sapiens) [compound 597]”, in the assay with HLA-A*02:01, the Peptide exchange entry is given as “″+++″ (≧50% = +++)”.

On to “598 (FLFPHSVLV; listed as Homo sapiens) [compound 598]”, for which the Peptide exchange result in the assay with HLA-A*02:01 was “″+++″ (≧50% = +++)”.

As to “599 (YLLNDASLISV; listed as Homo sapiens) [compound 599]”, in the assay with HLA-A*02:01, the Peptide exchange result is “″+++″ (≧50% = +++)”.

“600 (ALAAPDIVPAL; listed as Homo sapiens) [compound 600]”: the Peptide exchange result in the assay with HLA-A*02:01 was “″+++″ (≧50% = +++)”.

As to “601 (SAFPFPVTV; listed as Homo sapiens) [compound 601]”, in the assay with HLA-A*02:01, the Peptide exchange entry was “″+++″ (≧50% = +++)”.

With “602 (YLLEQIKLIEV; listed as Homo sapiens) [compound 602]”, in the assay with HLA-A*02:01, the Peptide exchange entry was “″++++″ (≧75% = ++++)”.

For the substance “604 (SILDRDDIFV; listed as Homo sapiens) [compound 604]”, the Peptide exchange result with HLA-A*02:01 is recorded as “″+++″ (≧50% = +++)”.

“605 (KLYEAVPQL; listed as Homo sapiens) [compound 605]”: in the assay with HLA-A*02:01, the Peptide exchange result was “″+++″ (≧50% = +++)”.

In the case of “606 (ALWETEVYI; listed as Homo sapiens) [compound 606]”, the Peptide exchange result in the assay with HLA-A*02:01 is given as “″+++″ (≧50% = +++)”.

As for “607 (RLYSGISGLEL; listed as Homo sapiens) [compound 607]”, in the assay with HLA-A*02:01, the Peptide exchange result is on record as “″+++″ (≧50% = +++)”.

Regarding “608 (SLLSVSHAL; listed as Homo sapiens) [compound 608]”, the Peptide exchange entry in the assay with HLA-A*02:01 was “″+++″ (≧50% = +++)”.

For “609 (ALWKQLLEL; listed as Homo sapiens) [compound 609]”, the Peptide exchange result with HLA-A*02:01 is listed as “″+++″ (≧50% = +++)”.

As for “610 (LLAPTPYIIGV; listed as Homo sapiens) [compound 610]”, in the assay with HLA-A*02:01, the Peptide exchange entry is on record as “″+++″ (≧50% = +++)”.

As for “611 (YLLDDGTLVV; listed as Homo sapiens) [compound 611]”, the Peptide exchange result with HLA-A*02:01 is given as “″++++″ (≧75% = ++++)”.

As to “612 (YLYNEGLSV; listed as Homo sapiens) [compound 612]”, the Peptide exchange entry with HLA-A*02:01 is “″+++″ (≧50% = +++)”.

In the case of “613 (RLLPPGAVVAV; listed as Homo sapiens) [compound 613]”, the Peptide exchange result with HLA-A*02:01 is given as “″+++″ (≧50% = +++)”.

For the substance “614 (LLLPDQPPYHL; listed as Homo sapiens) [compound 614]”, in the assay with HLA-A*02:01, the Peptide exchange entry is “″+++″ (≧50% = +++)”.

Consider “615 (VLPPDTDPA; listed as Homo sapiens) [compound 615]”, for which, in the assay with HLA-A*02:01, the Peptide exchange entry is recorded as “″++″ (≧20% = ++)”.

Take “616 (VLIDEVESL; listed as Homo sapiens) [compound 616]”: in the assay with HLA-A*02:01, the Peptide exchange entry is reported as “″+++″ (≧50% = +++)”.

Consider “617 (ALMYESEKVGV; listed as Homo sapiens) [compound 617]”, for which, in the assay with HLA-A*02:01, the Peptide exchange entry was “″+++″ (≧50% = +++)”.

As for “618 (VLFDSESIGIYV; listed as Homo sapiens) [compound 618]”, the Peptide exchange result in the assay with HLA-A*02:01 is listed as “″+++″ (≧50% = +++)”.

On to “619 (ALQDRVPLA; listed as Homo sapiens) [compound 619]”, for which, in the assay with HLA-A*02:01, the Peptide exchange entry is “″+++″ (≧50% = +++)”.

As for “620 (KLLNKIYEA; listed as Homo sapiens) [compound 620]”, the Peptide exchange result with HLA-A*02:01 was “″++++″ (≧75% = ++++)”.

As for “621 (VLMDRLPSLL; listed as Homo sapiens) [compound 621]”, the Peptide exchange result with HLA-A*02:01 is on record as “″++++″ (≧75% = ++++)”.

“622 (RLLGEEVVRVLQA; listed as Homo sapiens) [compound 622]”: in the assay with HLA-A*02:01, the Peptide exchange entry is recorded as “″+++″ (≧50% = +++)”.

In the case of “623 (YLVEDIQHI; listed as Homo sapiens) [compound 623]”, in the assay with HLA-A*02:01, the Peptide exchange result is listed as “″+++″ (≧50% = +++)”.

Consider “635 (SLDSTLHAV; listed as Homo sapiens) [compound 635]”, for which the Peptide exchange entry in the assay with HLA-A*02:01 is “″+++″ (≧50% = +++)”.

Take “648 (LLWGNAIFL; listed as Homo sapiens) [compound 648]”: the donors result in the assay on CD8+ T cells is “+++ (50%-69% = +++)”.

Consider “652 (TLWYRAPEV; listed as Homo sapiens) [compound 652]”, for which, in the assay on CD8+ T cells, the donors entry was “++++ (> = 70% = ++++)” and the wells entry is “+++ (50%-69% = +++)”.

For “659 (ILFPDIIARA; listed as Homo sapiens) [compound 659]”, in the assay on CD8+ T cells, the donors result is “+++ (50%-69% = +++)” and the wells entry is on record as “+ (<20% = +)”.

With “662 (KIQEILTQV; listed as Homo sapiens) [compound 662]”, in the assay on CD8+ T cells, the donors result is “+++ (50%-69% = +++)” and the wells result is “+ (<20% = +)”.

For the substance “663 (KIQEMQHFL; listed as Homo sapiens) [compound 663]”, in the assay with CD8+ T cells, the donors result was “+++ (50%-69% = +++)” and the wells entry is given as “+ (<20% = +)”.
